Measurements taken from publication PMC3688963, “Biochemical Characterization of Hypothetical Proteins from Helicobacter pylori” (PLoS ONE, 2013).

Tested on: CC(=O)Oc1ccc([N+](=O)[O-])cc1
Experiment: purified protein
Settings: 100 mM sodium acetate pH 6.0, 30°C

Substance: HP0310 (Helicobacter pylori 26695)
- Km: 180 ± 50 µM
- Vmax: 37400 µM/min
- kcat: 20.1 ± 0.917 s⁻¹
- kcat/Km: 112000 M⁻¹ s⁻¹
